Assay results from US20220204643A1 (published 2022).
One block for each binder: values may come before it.

Tests used:
[1] = target: T1, Ankyrin repeat domain 20 family member a5, pseudogene (human, UniProt A0PJZ0 1-165)
T1 construct: also called ANKRD20A5P

[2] = target: T2, Kirre like nephrin family adhesion molecule 1 (human, UniProt Q96J84 17-757, limits assumed)
T2 sequence: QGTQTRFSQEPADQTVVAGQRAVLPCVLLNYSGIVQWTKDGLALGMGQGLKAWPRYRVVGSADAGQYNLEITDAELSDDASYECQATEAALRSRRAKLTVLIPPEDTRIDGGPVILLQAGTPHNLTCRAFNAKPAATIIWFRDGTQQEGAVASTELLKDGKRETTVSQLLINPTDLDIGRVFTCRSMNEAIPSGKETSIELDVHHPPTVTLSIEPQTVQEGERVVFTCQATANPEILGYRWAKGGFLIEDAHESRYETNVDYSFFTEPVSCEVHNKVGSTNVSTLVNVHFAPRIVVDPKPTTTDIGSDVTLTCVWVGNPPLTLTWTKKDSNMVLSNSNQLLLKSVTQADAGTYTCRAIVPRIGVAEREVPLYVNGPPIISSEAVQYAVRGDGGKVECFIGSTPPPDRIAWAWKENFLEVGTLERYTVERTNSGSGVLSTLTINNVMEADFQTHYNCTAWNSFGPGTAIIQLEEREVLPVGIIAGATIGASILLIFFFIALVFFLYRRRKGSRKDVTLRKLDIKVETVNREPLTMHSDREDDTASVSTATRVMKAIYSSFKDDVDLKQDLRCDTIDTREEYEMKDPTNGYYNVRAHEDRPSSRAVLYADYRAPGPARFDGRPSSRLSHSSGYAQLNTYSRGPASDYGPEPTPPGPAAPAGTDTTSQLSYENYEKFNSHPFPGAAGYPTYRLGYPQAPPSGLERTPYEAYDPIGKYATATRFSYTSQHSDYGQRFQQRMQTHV

[3] = target: T3, GRB10 interacting GYF protein 1, transcript variant X10 (human, UniProt O75420 1-1035)
T3 construct: also called GIGYF1
T3 sequence: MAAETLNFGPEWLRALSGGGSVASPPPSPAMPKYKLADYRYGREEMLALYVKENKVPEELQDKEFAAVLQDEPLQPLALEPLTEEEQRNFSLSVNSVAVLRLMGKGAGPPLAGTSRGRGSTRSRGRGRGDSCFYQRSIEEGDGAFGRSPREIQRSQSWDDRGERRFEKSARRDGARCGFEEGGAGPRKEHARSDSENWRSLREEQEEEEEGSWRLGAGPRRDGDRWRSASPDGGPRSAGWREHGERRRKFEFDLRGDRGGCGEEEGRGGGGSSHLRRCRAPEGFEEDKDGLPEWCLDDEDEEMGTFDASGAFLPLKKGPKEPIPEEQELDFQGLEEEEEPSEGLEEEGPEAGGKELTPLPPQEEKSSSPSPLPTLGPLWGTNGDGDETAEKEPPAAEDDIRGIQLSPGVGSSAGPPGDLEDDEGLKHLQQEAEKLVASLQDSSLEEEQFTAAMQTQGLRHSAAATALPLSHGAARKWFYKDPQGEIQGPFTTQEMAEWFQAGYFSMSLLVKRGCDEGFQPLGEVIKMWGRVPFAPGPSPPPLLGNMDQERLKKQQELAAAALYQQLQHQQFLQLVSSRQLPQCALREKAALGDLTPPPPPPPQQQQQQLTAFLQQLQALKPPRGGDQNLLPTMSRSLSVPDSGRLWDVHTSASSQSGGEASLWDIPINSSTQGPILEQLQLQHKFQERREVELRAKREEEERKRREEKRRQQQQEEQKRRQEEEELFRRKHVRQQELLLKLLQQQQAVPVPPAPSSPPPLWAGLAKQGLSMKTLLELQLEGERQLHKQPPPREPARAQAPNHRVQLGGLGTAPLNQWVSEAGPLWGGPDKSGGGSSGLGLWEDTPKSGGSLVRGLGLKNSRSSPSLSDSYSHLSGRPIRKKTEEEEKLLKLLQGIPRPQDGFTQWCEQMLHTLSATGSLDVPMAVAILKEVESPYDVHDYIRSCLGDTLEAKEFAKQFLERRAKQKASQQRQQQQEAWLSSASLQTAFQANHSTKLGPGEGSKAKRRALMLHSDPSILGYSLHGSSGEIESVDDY

F-box protein 2 = target: T4, F-box protein 2 (human, UniProt Q9UK22 1-296)
T4 construct: also called FBXO2
T4 sequence: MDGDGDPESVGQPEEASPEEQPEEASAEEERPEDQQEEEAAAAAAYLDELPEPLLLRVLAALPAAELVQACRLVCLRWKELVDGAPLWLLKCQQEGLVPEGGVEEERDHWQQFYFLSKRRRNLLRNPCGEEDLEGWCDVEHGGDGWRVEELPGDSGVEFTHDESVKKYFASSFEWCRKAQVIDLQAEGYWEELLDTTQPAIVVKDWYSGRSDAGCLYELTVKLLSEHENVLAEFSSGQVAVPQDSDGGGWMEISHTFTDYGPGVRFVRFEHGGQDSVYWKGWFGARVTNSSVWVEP

tubulin gamma 1 = target: T5, tubulin gamma 1 (human, UniProt P23258 1-451)
T5 construct: also called TUBG1
T5 sequence (P23258 whole entry): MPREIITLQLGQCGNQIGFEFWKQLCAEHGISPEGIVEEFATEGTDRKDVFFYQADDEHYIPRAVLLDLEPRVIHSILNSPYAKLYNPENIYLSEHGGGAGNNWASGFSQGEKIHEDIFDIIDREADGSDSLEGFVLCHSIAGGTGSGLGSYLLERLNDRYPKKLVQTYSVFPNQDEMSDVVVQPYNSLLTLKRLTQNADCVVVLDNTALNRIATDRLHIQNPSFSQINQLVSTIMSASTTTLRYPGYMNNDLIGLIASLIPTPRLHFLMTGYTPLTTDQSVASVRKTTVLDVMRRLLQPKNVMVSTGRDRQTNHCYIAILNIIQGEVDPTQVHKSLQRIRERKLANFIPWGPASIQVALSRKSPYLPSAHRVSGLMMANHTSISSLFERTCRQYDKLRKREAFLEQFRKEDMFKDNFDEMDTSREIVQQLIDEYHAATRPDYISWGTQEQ

[4] = target: T6, oxidation resistance 1, transcript variant 1 (human, UniProt Q8N573 90-874, limits assumed)
T6 construct: also called OXR1
T6 sequence: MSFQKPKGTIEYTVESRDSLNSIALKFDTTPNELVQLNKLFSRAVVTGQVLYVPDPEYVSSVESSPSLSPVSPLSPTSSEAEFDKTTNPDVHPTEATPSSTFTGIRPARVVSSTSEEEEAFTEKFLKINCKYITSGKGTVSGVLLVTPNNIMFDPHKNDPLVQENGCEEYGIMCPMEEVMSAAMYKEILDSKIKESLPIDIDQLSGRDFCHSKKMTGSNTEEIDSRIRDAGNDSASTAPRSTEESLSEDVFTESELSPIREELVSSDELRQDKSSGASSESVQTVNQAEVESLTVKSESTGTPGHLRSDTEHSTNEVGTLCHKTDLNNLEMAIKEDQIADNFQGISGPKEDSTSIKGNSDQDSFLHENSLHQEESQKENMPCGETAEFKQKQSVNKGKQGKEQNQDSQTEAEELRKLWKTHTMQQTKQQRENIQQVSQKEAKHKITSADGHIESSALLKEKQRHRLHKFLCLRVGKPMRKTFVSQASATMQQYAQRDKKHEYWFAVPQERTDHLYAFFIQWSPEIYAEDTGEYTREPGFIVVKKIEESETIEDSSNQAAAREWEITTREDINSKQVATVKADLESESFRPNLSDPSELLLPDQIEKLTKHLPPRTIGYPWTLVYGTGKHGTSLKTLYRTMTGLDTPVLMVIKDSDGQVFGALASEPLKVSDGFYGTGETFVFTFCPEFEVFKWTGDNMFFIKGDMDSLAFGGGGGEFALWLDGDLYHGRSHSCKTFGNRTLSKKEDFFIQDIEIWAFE

[5] = target: T7, killer cell lectin like receptor C1, transcript variant 3 (human, UniProt P26715 1-233)
T7 construct: also called KLRC1
T7 sequence (P26715 other isoform, or with tags, fused parts or gaps mutant limits assumed): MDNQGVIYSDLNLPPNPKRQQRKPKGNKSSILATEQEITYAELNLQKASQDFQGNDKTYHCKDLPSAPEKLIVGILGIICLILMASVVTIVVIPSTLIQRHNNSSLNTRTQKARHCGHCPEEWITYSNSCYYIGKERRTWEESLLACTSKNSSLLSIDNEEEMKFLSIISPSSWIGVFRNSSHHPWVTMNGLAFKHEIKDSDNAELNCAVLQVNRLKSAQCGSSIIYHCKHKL

[6] = target: T8, Egf like and emi domain containing 1, pseudogene (human, UniProt Q0D2K5 1-195); test: protein array
T8 construct: on protein array; also called EGFEM1P
T8 sequence: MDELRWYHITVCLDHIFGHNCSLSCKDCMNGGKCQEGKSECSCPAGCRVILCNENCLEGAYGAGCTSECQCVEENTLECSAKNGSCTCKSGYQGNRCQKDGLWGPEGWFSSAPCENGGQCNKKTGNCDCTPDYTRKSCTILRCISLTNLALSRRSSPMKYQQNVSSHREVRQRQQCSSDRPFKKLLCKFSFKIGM

[7] = target: T9, coiled-coil domain containing 74B, transcript variant 2 (human, UniProt Q96LY2 1-380)
T9 construct: also called CCDC74B
T9 sequence (Q96LY2 other isoform, or with tags, fused parts or gaps mutant limits assumed): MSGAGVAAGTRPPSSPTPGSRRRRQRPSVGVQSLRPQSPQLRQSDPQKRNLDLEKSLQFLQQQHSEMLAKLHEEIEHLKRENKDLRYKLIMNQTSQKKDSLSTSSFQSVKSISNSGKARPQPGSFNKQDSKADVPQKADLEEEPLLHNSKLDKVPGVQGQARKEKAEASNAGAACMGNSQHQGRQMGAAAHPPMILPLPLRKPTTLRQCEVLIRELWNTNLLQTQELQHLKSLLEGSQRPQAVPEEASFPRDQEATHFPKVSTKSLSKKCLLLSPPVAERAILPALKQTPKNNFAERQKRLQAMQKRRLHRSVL

[8] = target: T10, neural retina leucine zipper, transcript variant X4 (human, UniProt P54845 1-237)
T10 construct: also called NRL
T10 sequence (P54845 whole entry, change not shown): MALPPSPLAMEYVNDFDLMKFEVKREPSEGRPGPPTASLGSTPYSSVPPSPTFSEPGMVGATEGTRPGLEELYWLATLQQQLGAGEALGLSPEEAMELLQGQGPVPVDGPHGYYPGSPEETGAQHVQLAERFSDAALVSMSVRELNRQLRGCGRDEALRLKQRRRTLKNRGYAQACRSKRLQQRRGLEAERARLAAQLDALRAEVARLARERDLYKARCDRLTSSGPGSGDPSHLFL

T1 sequence (A0PJZ0 whole entry, the tested form may be a part): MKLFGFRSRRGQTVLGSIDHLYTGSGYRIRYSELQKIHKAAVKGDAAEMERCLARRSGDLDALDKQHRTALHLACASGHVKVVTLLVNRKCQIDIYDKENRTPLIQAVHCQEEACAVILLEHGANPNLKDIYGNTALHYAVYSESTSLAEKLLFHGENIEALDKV

- binding result [4]: binds
B3: TPRO1001 (antibody, V domains shown)
VH: EVQLVQSGAEVKKPGESLRISCKGSGYSFTSFWISWVRQMPGKGLEWMGRIDPSDSYTNYSPSFQGHVTISADKSISTAFLQWSSLKASDTAMYYCARHQQKYSPISPLDYWGQGTLVTVSS
VL: QSALTQPASVSGSPGQSITISCTGTSSDVGGYNYVSWYQQHPGKAPKLMIYDVSNRPSGVSNRFSGSKSGNTASLTISGLQAEDEADYYCSSYTSSSSLVFGGGTKVTVLG

- binding result [6]: binds
B5: TBRE1036 (antibody, V domains shown)
VH: QVQLVESGGGVVQPGRSLRLSCAASGFTFSSYAMHWVRQAPGKGLEWVAVISYDGSNKYYADSLKGRFTISRDNSKDTLYLQVNSLRPEDTAVYYCARVNIAAAGTLDYWGQGTLVTVSS
VL: EIVLTQSPGTLSLSPGERATLSCRASQSVSSRYLAWYQQKPGQAPRLLIHGASSRATGIPDRFSGSGSGTDFTLTISRLEPEDFAVYYCQQYGSAWTFGQGTKVEIKR
notes: VH/VL only

- binding result [7]: binds
B6: TSAR1003 (antibody, V domains shown)
VH: QLQLQESGPGLVKPSETLSLTCTVSGVSIGTSSYYWGWIRQPPAKGLEWIGSIYYSGSTYYNPSLKNRVTISVDTSKNHFSLKLSSVTAADTAVYYCARHRTGQYYYNSWGQGTLVTVSS
VL: SSELTQDPAVSVALGQTVRITCQGDSLRTDYATWYQQKPGQAPILVFYGEDNRPSGIPDRFSGSSSGNTASLTITGAQAEDEADYYCNSRDSSGHHWVFGGGTKLTVL

The remaining lines, values behind:

B1: TPRO1002 (antibody, V domains shown)
VH: EVQLVESGGGVIKPGGSLKLSCEGSGFTLDDYVMHWVRQAPGKGLEWISSISGDGTRTYYADSVKGRFTISRNNGKNSLYLQMDSLRREDTALYYCAKDARLAYYGMDVWGQGTTVTVSS
VL: QSALTQPASVSGSPGQSITISCTGTSSDIGGYDLVSWYQHHPGKAPKLVISEGSKRPSGVSNRFFGSKSGNTASLTISGLQAEDEADYYCCSFTGTSTFVFGTGTKVTVL
- binding result [1]: binds
- binding result [2]: binds
- binding result [3]: binds

B2: TPAN1007 (antibody, V domains shown)
VH: PVQLVQSGAEVKKPGESLKISCQGSGYNFSRYWIGWVRQMPGKGLEWMGVVFPGDSDIRYSLSFQGHITIYADNSISTAYLQWSSLKASDTAIYYCATTSTMPMPTRGRDWFDPWGQGTLVTVSS
VL: PSVLTQPPSVSGAPGQRVTISCTGSSSNIGAGYDVHWYQQLPGTAPKLLIYANTNRPSGVPDRFSGSKSGTSASLAITGLQAEDEADYYCQSYDNSLSGGVFGGGTKLTVLG
- binding result (F-box protein 2): binds
- binding result (tubulin gamma 1): binds

B4: TREC1003 (antibody, V domains shown)
VH: QVQLVQSGSEVKKPGASVRLACKTSGYTFSNYGVSWVRQGPGRGLEWLGWISGYNGRTHSADKFRDRVTLTTDTSTTTVYVDLKNLTSDDTAVYYCARVGTSHWYSDSWGQGTLVTVSS
VL: QSVLTQPPSVSGAPGQRVTISCAGSYSNIGAGYDVHWYRQLPGTAPTLLIYSNNNRPSGVSDRFSGSKSGTSASLAITGLQAEDEADYYCQSFDSSLSRSVFGTGTKVTVL
- binding result [5]: binds

B7: TSAR1001 (antibody, V domains shown)
VH: EVQLVESGGGMVQPGESLRLSCAASGFDFTSYWMAWVRQAPGKGLEWVANMNADGSEKHYVDSVKGRFSISRDNAKKLLFLQMNSLTVDDTGVYYCARDEGRREGAWGQGTQVIVSA
VL: EIVLTQSPATLSFSPGDRATLSCRASQNINRFLAWYQQKPGQTPRLLIYDASTRATGIPARFSGSGSGTDFSLIISSLEPEDFAIYYCQQRNNWPITFGPGTKVDVK
- binding result [8]: binds
